± gives the uncertainty stated by the source.
Assay: self-splicing fitness, log relative to wild type (ln ratio); higher = more splicing; Tetrahymena group I intron in knt gene, E. coli kanamycin selection, DiMSum; sequences stand for … in CUCUCU…GGAGGGAAAAGUUAUCAGGCAUGCACCUGGUAGCUAGUCUUUAAACCAAUAGAUUGCAUCGGUUUAAAAGGCAAGACCGUCAAAUUGCGGGAAAGGGGUCAACAGCCGUUCAGUACCAAGUCUCAGGGGAAACUUUGAGAUGGCCUUGCAAAGGGUAUGGUAAUAAGCUGACGGACAUGGUCCUAACCACGCAGCCAAGUCCUAAGUCAACAGAUCUUCUGUUGAUAUGGAUGCAGUUCACAGACUAAAUGUCGGUCGGGGAAGAUGUAUUCUUCUCAUAAGAUAUAGUCGGACCUCUCCUUAAUGGGAGCUAGCGGAUGAAGUGAUGCAACACUGGAGCCGCUGGGAACUAAUUUGUAUGCGAAAGUAUAUUGAUUAGUUUUGGAGUACUCGUGGUCG
In short: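 Six replicate transformations of E. coli BL21(DE3) with a pET-22b(+) library were grown overnight at 37°C or 30°C. The library randomised all eight P1ex-region intron nucleotides, the intron lying in the knt kanamycin-resistance gene, and plates were LB agar with or without 25 μg/mL kanamycin plus 100 μg/mL carbenicillin, 50 μM IPTG and 0.2% rhamnose. Pooled colonies were amplicon-sequenced on an Illumina HiSeq 2500, and fitness is the DiMSum error-weighted combination of wild-type-normalised replicate fold changes, kanamycin versus none.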

Row | Sequence | self-splicing fitness (ln) (30 °C) | self-splicing fitness (ln) (37 °C)
1 | AUACAGCAAUAUUACGUGUC | -4.39 ± 0.14 | -2.67 ± 0.13
2 | AUACAGCAAUAUUACGUUGC | -4.31 ± 0.28 | -2.21 ± 0.35
3 | AUACAGCAAUAUUACGUUGG | -3.51 ± 0.14 | -2.87 ± 0.16
4 | AUAGAGCAAUAUUACGAAAA | -1.06 ± 0.3 | -1.85 ± 0.35
5 | AUAGAGCAAUAUUACGAGAU | -0.944 ± 0.27 | -1.72 ± 0.4
6 | AUAGAGCAAUAUUACGAGCG | -2.43 ± 0.21 | -1.07 ± 0.22
7 | AUAGAGCAAUAUUACGCCGG | -2.52 ± 0.31 | -1.94 ± 0.47
8 | AUAGAGCAAUAUUACGCUGC | -2.86 ± 0.29 | -1.05 ± 0.2
9 | AUAGAGCAAUAUUACGCUUA | -0.78 ± 0.084 | 0.522 ± 0.16
10 | AUAGAGCAAUAUUACGCUUU | -1.68 ± 0.13 | -1.58 ± 0.15
11 | AUAGAGCAAUAUUACGGAAU | -1.26 ± 0.15 | -1.24 ± 0.18
12 | AUAGAGCAAUAUUACGGCAU | 0.19 ± 0.084 | 0.738 ± 0.12
13 | AUAGAGCAAUAUUACGGCCG | -0.599 ± 0.24 | -1.36 ± 0.45
14 | AUAGAGCAAUAUUACGGGCG | -3 ± 0.22 | -2.13 ± 0.31
15 | AUAGAGCAAUAUUACGGUUG | -3.21 ± 0.23 | -1.92 ± 0.22
16 | AUAGAGCAAUAUUACGGUUU | -0.828 ± 0.071 | -0.331 ± 0.098
17 | AUAGAGCAAUAUUACGUAAA | – | -1.57 ± 0.24
18 | AUAGAGCAAUAUUACGUCAU | -0.913 ± 0.087 | 0.145 ± 0.1
19 | AUAGAGCAAUAUUACGUCGU | -0.0699 ± 0.096 | -0.158 ± 0.1
20 | AUAGAGCAAUAUUACGUCUG | -0.796 ± 0.098 | -0.654 ± 0.14
21 | AUAGAGCAAUAUUACGUGUA | -3.02 ± 0.18 | -1.17 ± 0.16
22 | AUAGAGCAAUAUUACGUUGU | -1.96 ± 0.066 | -1.52 ± 0.07
23 | AUAUAGCAAUAUUACGAAAG | -3.28 ± 0.25 | -2.08 ± 0.38
24 | AUAUAGCAAUAUUACGCAAC | -3.95 ± 0.32 | -1.96 ± 0.27

Row | Sequence | self-splicing fitness (ln) (30 °C) | self-splicing fitness (ln) (37 °C)
25 | AUAUAGCAAUAUUACGCACA | -0.73 ± 0.19 | -0.28 ± 0.23
26 | AUAUAGCAAUAUUACGCGUU | -1.67 ± 0.2 | -1.61 ± 0.24
27 | AUAUAGCAAUAUUACGCUAC | -2.34 ± 0.33 | –
28 | AUAUAGCAAUAUUACGGAUU | -1.46 ± 0.14 | -1.26 ± 0.22
29 | AUAUAGCAAUAUUACGGCUU | 0.0949 ± 0.099 | 0.269 ± 0.12
30 | AUAUAGCAAUAUUACGGUUA | -1.12 ± 0.13 | -0.372 ± 0.12
31 | AUAUAGCAAUAUUACGUAAU | -1.02 ± 0.073 | -0.751 ± 0.12
32 | AUAUAGCAAUAUUACGUACU | -0.531 ± 0.16 | -0.188 ± 0.19
33 | AUAUAGCAAUAUUACGUAGU | -2.39 ± 0.14 | -0.774 ± 0.14
34 | AUAUAGCAAUAUUACGUAUA | -2.12 ± 0.23 | -0.454 ± 0.17
35 | AUAUAGCAAUAUUACGUAUC | -3.41 ± 0.3 | -1.92 ± 0.35
36 | AUAUAGCAAUAUUACGUCUA | -0.735 ± 0.12 | -0.495 ± 0.12
37 | AUAUAGCAAUAUUACGUCUC | -3.22 ± 0.36 | -1.51 ± 0.28
38 | AUAUAGCAAUAUUACGUGUA | -2.27 ± 0.36 | -2.01 ± 0.25
39 | AUAUAGCAAUAUUACGUUAC | -3.05 ± 0.29 | -2.33 ± 0.24
40 | AUCAAGCAAUAUUACGAAGG | -3.36 ± 0.19 | -2.96 ± 0.26
41 | AUCAAGCAAUAUUACGACUC | -0.467 ± 0.1 | -0.0986 ± 0.14
42 | AUCAAGCAAUAUUACGAGAG | -3.32 ± 0.16 | -1.76 ± 0.11
43 | AUCAAGCAAUAUUACGAGGG | -2.85 ± 0.19 | -1.39 ± 0.19
44 | AUCAAGCAAUAUUACGAGGU | -3.52 ± 0.2 | -3.4 ± 0.33
45 | AUCAAGCAAUAUUACGAUAA | -1.99 ± 0.11 | -0.292 ± 0.092
46 | AUCAAGCAAUAUUACGCAAU | -2.22 ± 0.14 | -1.56 ± 0.14
47 | AUCAAGCAAUAUUACGCCAC | -1.42 ± 0.29 | -1.79 ± 0.4
48 | AUCAAGCAAUAUUACGCGUA | -1.02 ± 0.086 | -0.375 ± 0.08

Row | Sequence | self-splicing fitness (ln) (30 °C) | self-splicing fitness (ln) (37 °C)
49 | AUCAAGCAAUAUUACGCGUG | -2.23 ± 0.08 | -0.744 ± 0.084
50 | AUCAAGCAAUAUUACGCUAU | -3.18 ± 0.16 | -0.907 ± 0.12
51 | AUCAAGCAAUAUUACGCUUG | -4.23 ± 0.39 | -2.6 ± 0.22
52 | AUCAAGCAAUAUUACGGCAU | -0.523 ± 0.067 | 0.787 ± 0.088
53 | AUCAAGCAAUAUUACGGGGA | -1.43 ± 0.12 | -1.49 ± 0.13
54 | AUCAAGCAAUAUUACGGUGC | -3.24 ± 0.17 | -3.12 ± 0.24
55 | AUCAAGCAAUAUUACGGUUU | -1.29 ± 0.073 | -0.35 ± 0.075
56 | AUCAAGCAAUAUUACGUAGG | -2.91 ± 0.1 | -1.51 ± 0.11
57 | AUCAAGCAAUAUUACGUCAG | -3.41 ± 0.18 | -1.92 ± 0.16
58 | AUCAAGCAAUAUUACGUGGA | -2.28 ± 0.14 | -1.71 ± 0.12
59 | AUCAAGCAAUAUUACGUUGA | -2.52 ± 0.1 | -1.8 ± 0.12
60 | AUCCAGCAAUAUUACGAAAU | -0.769 ± 0.084 | -0.546 ± 0.11
61 | AUCCAGCAAUAUUACGAAGU | -1.21 ± 0.079 | -1.2 ± 0.094
62 | AUCCAGCAAUAUUACGAAUU | -1.43 ± 0.084 | -1.04 ± 0.11
63 | AUCCAGCAAUAUUACGACGG | -4 ± 0.3 | -1.8 ± 0.19
64 | AUCCAGCAAUAUUACGACUC | -0.847 ± 0.071 | 0.244 ± 0.1
65 | AUCCAGCAAUAUUACGAGCU | -2.2 ± 0.096 | -2.03 ± 0.17
66 | AUCCAGCAAUAUUACGAGGG | -2.9 ± 0.1 | -1.49 ± 0.11
67 | AUCCAGCAAUAUUACGAGUC | -2.87 ± 0.17 | -2.01 ± 0.21
68 | AUCCAGCAAUAUUACGAUUA | -1.19 ± 0.094 | -0.911 ± 0.1
69 | AUCCAGCAAUAUUACGCAAA | -2.07 ± 0.16 | -0.15 ± 0.11
70 | AUCCAGCAAUAUUACGCAUC | -2.92 ± 0.18 | -1.97 ± 0.14
71 | AUCCAGCAAUAUUACGCCUA | -1.29 ± 0.19 | 0.121 ± 0.13
72 | AUCCAGCAAUAUUACGCCUG | -3.86 ± 0.26 | -2.09 ± 0.16

Row | Sequence | self-splicing fitness (ln) (30 °C) | self-splicing fitness (ln) (37 °C)
73 | AUCCAGCAAUAUUACGCGGU | – | -3.32 ± 0.42
74 | AUCCAGCAAUAUUACGCUAG | -2.76 ± 0.11 | -1.11 ± 0.12
75 | AUCCAGCAAUAUUACGCUGG | -3.65 ± 0.19 | -1.7 ± 0.16
76 | AUCCAGCAAUAUUACGCUGU | -2.12 ± 0.14 | -2.02 ± 0.14
77 | AUCCAGCAAUAUUACGCUUC | -3.58 ± 0.16 | -2.15 ± 0.15
78 | AUCCAGCAAUAUUACGCUUU | -0.879 ± 0.076 | -0.641 ± 0.086
79 | AUCCAGCAAUAUUACGGCAA | -0.324 ± 0.1 | -0.263 ± 0.12
80 | AUCCAGCAAUAUUACGGCAU | -0.192 ± 0.071 | 0.204 ± 0.082
81 | AUCCAGCAAUAUUACGGCUC | -1.39 ± 0.078 | -0.482 ± 0.099
82 | AUCCAGCAAUAUUACGGUGG | -4.66 ± 0.33 | -2.49 ± 0.21
83 | AUCCAGCAAUAUUACGUCGU | -0.689 ± 0.062 | -0.625 ± 0.077
84 | AUCCAGCAAUAUUACGUCUG | -3.67 ± 0.23 | -2.55 ± 0.25
85 | AUCCAGCAAUAUUACGUGGG | -2.58 ± 0.1 | -3.5 ± 0.13
86 | AUCCAGCAAUAUUACGUGUC | -3.34 ± 0.16 | -2.24 ± 0.14
87 | AUCGAGCAAUAUUACGAAGA | -1.74 ± 0.44 | -1.65 ± 0.38
88 | AUCGAGCAAUAUUACGAAGC | -3.18 ± 0.39 | –
89 | AUCGAGCAAUAUUACGAAGG | -2.56 ± 0.23 | -2.28 ± 0.31
90 | AUCGAGCAAUAUUACGAAUG | – | -2.06 ± 0.28
91 | AUCGAGCAAUAUUACGACAC | -2.4 ± 0.29 | -0.469 ± 0.22
92 | AUCGAGCAAUAUUACGACCA | -2.06 ± 0.22 | -0.741 ± 0.28
93 | AUCGAGCAAUAUUACGACGU | -0.331 ± 0.096 | 0.0461 ± 0.12
94 | AUCGAGCAAUAUUACGACUC | -3.4 ± 0.3 | -1.98 ± 0.27
95 | AUCGAGCAAUAUUACGACUG | -2.17 ± 0.13 | -1.64 ± 0.15
96 | AUCGAGCAAUAUUACGACUU | -0.779 ± 0.15 | -0.826 ± 0.19
